The record followed here is IntAct's records for PubMed 21399639.

The target in this assay is T1, ikkb_human IKBKB (UniProt O14920).
T1 sequence: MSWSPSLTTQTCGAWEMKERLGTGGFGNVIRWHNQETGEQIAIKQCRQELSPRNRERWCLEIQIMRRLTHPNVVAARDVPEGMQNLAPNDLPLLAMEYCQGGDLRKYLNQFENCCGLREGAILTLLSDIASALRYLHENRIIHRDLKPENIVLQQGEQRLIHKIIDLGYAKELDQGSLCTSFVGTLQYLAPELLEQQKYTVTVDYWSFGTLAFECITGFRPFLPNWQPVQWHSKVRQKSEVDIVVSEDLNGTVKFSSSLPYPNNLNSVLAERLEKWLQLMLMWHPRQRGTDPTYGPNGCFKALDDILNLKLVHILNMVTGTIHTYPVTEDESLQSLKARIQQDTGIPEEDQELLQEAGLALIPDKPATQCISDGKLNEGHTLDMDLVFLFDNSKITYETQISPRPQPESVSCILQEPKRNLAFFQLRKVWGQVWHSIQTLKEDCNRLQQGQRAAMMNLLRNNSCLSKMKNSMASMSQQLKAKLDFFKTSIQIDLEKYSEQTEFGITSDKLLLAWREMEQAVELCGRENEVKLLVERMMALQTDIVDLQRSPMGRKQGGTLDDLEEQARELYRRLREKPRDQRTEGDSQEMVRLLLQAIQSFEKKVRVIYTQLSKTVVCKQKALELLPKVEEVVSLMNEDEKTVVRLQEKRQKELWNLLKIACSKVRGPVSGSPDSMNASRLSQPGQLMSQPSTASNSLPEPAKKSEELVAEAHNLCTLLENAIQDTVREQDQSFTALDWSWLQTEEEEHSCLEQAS

Regarding “Small ribosomal subunit protein uS3 (Homo sapiens) (from UniProt P23396) S209A”, the “effect of a mutation on the interaction” value is “disrupting interaction”.
